Measured values: publication PMC6792017 (The EMBO Journal, 2019)

Target: T1, HA-tagged caspase-1 p10 plus p20 C285S active-site mutant (human, UniProt P29466 120-297; P29466 317-404, C285S)
T1 sequence (looked up) 1: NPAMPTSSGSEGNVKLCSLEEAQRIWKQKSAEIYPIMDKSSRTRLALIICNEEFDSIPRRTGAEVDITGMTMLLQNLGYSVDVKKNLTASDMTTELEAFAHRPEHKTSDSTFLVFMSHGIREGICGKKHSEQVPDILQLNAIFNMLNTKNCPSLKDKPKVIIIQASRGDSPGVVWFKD
T1 sequence (looked up) 2: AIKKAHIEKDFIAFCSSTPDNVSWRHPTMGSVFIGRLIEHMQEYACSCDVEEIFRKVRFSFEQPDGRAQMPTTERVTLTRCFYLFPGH
Experiment: non-reducing SDS-PAGE with Western blot

binding result: binds
B1: active recombinant human PRDX4 (non-reduced) (enzyme, UniProt Q13162 38-271, looked up)
chain: WETEERPRTREEECHFYAGGQVYPGEASRVSVADHSLHLSKAKISKPAPYWEGTAVIDGEFKELKLTDYRGKYLVFFFYPLDFTFVCPTEIIAFGDRLEEFRSINTEVVACSVDSQFTHLAWINTPRRQGGLGPIRIPLLSDLTHQISKDYGVYLEDSGHTLRGLFIIDDKGILRQITLNDLPVGRSVDETLRLVQAFQYTDKHGEVCPAGWKPGSETIIPDPAGKLKYFDKLN
